The assay has as its target HoxG, large subunit of the membrane-bound [NiFe]-hydrogenase (MBH) from Cupriavidus necator, isolated, with N-terminal Strep-tag II (Cupriavidus necator) (UniProt P31891). The experiment in a line: SEC; HoxG at higher concentrations (series 0.5, 2.5, 12.5 and 60 mg/ml); Superdex 200 Increase 10/300 GL; 50 mM KiPO4, 150 mM NaCl, pH 7.4, 4 °C; sizes from a calibration curve of reference proteins.

With “HoxG, large subunit of the membrane-bound [NiFe]-hydrogenase (MBH) from Cupriavidus necator, isolated, with N-terminal Strep-tag II (from UniProt P31891 1-618) (natural protein)”, the stoichiometry N (as a rule, the number of molecules, sites or subunits per partner or assembly) was 2.

(Values after article PMC9886862.)
